Laboratory results taken from patent US20050079613A1, “Downregulation of cell surface glycoproteins by a family of human ubiquitin ligases” (Oregon Health & Science University, priority 2002, published 2005).
Entries after “also recorded” stand apart in the source; their conditions may differ.

How the values were obtained:
[1] = system: ubiquitin; assay: In vitro ubiquitination assay with GST-fused RING-CH (PHD) domains, E1, E2 panel, anti-ubiquitin immunoblot; format: biochemical; details: for ubiquitin ligase activity with UbCH5a: E2 = UbCH5a; for ubiquitin ligase activity with MmUbc6: E2 = murine MmUbc6
Procedure: Ubiquitination assay. UbCH2 and UbCH3 were obtained from Boston Biochem. (His)6-UbCH5a and GST fusion proteins were expressed in BL21-DE3 cells (Stratagene) and BL21 cells (Amersham), respectively, and purified as previously described (Boutell, C., S. Sadis and R. D. Everett, J. Virol. 76:841-850, 2002; Tiwari, S. and A. M. Weissman, J. Biol. Chem. 276:16193-16200, 2001). Purified E3 proteins were stored at 4° C., and E2 proteins were stored at −80° C. In vitro reaction mixtures (20 μl total) included: 50 nM rabbit E1 (Boston Biochem), 28 μM Ubiquitin, 5 mM ATP, 50 mM Tris-HCl pH 7.5, 50 mM NaCl, and 2 mM DTT. E2 enzymes were used at concentrations varying from 0.1 to 2.3 μM, and E3 concentrations ranged from 3 to 30 μM. After 90 minutes of incubation at 30° C., reactions were stopped by boiling in SDS sample buffer. Samples were electrophoresed through 12% polyacrylamide SDS gels and blotted using anti-ubiquitin mouse antibody, P4D1 (Santa Cruz Biotech).
In vitro reaction mixtures (20 μl total) included: 50 nM rabbit E1 (Boston Biochem), 28 μM Ubiquitin, 10 mM ATP, 50 mM Tris-HCl pH 7.5, 50 mM NaCl, and 2 mM DTT. E2 enzymes were used at concentrations varying from 0.7 to 2.3 μM, and E3 concentrations ranged from 3 to 25 μM. After 90 minutes of incubation at 30° C., reactions were stopped by addition of 4×reducing sample buffer. Samples were electrophoresed through 12% SDS gels and blotted using anti-ubiquitin mouse antibody (Santa Cruz Biotech).
To examine if the RING-CH domains of MARCH-I and MARCH-II would act as ubiquitin ligases in vitro, DNA fragments encoding the amino-terminal RING-CH-domain of both proteins were fused to Glutathione-S-transferase. The resulting constructs were sequence confirmed and expression of GST-MARCH protein verified by immunoblot. The GST-fusion protein was expressed and purified from E. coli cultures using Glutathione-columns. The ICP0-RING-domain was also purified, in parallel with the MARCH-I and MARCH-II constructs. A panel of E2 enzymes was either purchased from commercial sources or purified either by nickel-chelate chromatography or on glutathione columns. All E2-enzymes formed mercapto-ethanol-sensisitve complexes with ubiquitin thus showing ubiquitin conjugating activity. Purified ubiquitin and E1 was obtained from commercial sources.
To examine if the RING-CH domains of MARCH proteins act as ubiquitin ligases in vitro, a DNA fragment encoding the amino-terminal RING-CH-domains of MARCH-I, II, IV and VIII were fused to Glutathione-S-transferase (GST) for bacterial expression. The GST-fusion proteins were purified from E. coli cultures using Glutathione-sepharose-columns. Approximately thirty E2 proteins are found in the human genome compared to only one E1 enzyme (Pickart, 2001, supra). […] The specificity and selectivity of E3s with respect to E2s, however, is not well characterized. To cover a spectrum of E2s, a panel of E2 enzymes (Mansouri et al., 2003, supra) was acquired. The various E2 enzymes were incubated with or without the RING-CH-GST fusions in the presence of ubiquitin, ATP, E1. The formation of multiubiquitin-adducts was examined by immunoblotting with antibodies against ubiquitin.

[2] = system: HLA class I (MHC I); assay: Surface expression of endogenous MHC I on transfected HeLa cells, flow cytometry; format: cell-based, human; details: HeLa cells transfected with MARCH plasmid and GFP, 24 h post-transfection
Procedure: (§1) Flow cytometry. Cells were removed from tissue culture dishes with 0.05% Trypsin-EDTA (Invitrogen), washed with ice-cold PBS, and incubated with appropriate antibody for 30 minutes at 4° C. The cells were washed with ice-cold PBS and either resuspended in ice-cold PBS or incubated with PE-conjugated anti-mouse secondary antibody (DAKO) and washed again before analysis with a BD Biosciences (San Jose, Calif.) FACScalibur flow cytometer.
(§2) The ability to downregulate MHC I is common to KSHV-K3, KSHV-K5, MHV68-K3 and MV-M153R (Coscoy and Ganem, 2000, supra; Guerin et al., 2002, supra; Ishido et al., 2000b supra; Stevenson et al., 2000, supra). Additional substrates are ICAM-1 and B7.2 (but not B7.1) for KSHV-K5, as well as CD95 and CD4 for M153R (Coscoy and Ganem, 2001, supra; Guerin et al., 2002, supra; Ishido et al., 2000a, supra; Mansouri et al., 2003, supra). Since only low copy numbers were detected in HeLa cells for transcripts corresponding to each of the MARCH-proteins (FIG. 7C, and data not shown), HeLa cells were transfected with expression plasmids for MARCH-I, II, III, IV, V and VIII. Surface expression of selected glycoproteins was monitored upon transfection. The following known substrates for viral K3-family members were tested: Fas (CD95) and HLA class I (MHC I), both of which are endogenously expressed in HeLa cells, as well as transfected HLA-A2.1 or CD4. […] Surface expression of the respective markers was analyzed by flow cytometry. GFP was used to identify transfected cells.
With regards to whether MHC I downregulation by MARCH-IV was only observed at very high expression levels, since the viral immune evasion genes seem to be dedicated to MHC I downregulation, MHC I expression was compared at different expression levels of MARCH-IV or KSHV-K5 by taking advantage of the tetracycline-regulatable system to partially express either protein (Gossen, M. and H. Bujard, Proc. Natl. Acad. Sci. USA 89:5547-5551, 1992). Tet-off HeLa cells were transfected with either MARCH-IV or with KSHV-K5 in the presence of increasing amounts of tetracycline to shut off transcription. […]

[3] = system: transferrin receptor; assay: Surface expression of transferrin receptor on transfected HeLa cells, flow cytometry; format: cell-based, human; details: HeLa cells transfected with MARCH plasmid and GFP, 24 h post-transfection
Procedure: as §1
Cells were transfected with appropriate plasmids as well as GFP to track transfection efficiency. […]
The ability to downregulate MHC I is common to KSHV-K3, KSHV-K5, MHV68-K3 and MV-M153R (Coscoy and Ganem, 2000, supra; Guerin et al., 2002, supra; Ishido et al., 2000b supra; Stevenson et al., 2000, supra). […] Since only low copy numbers were detected in HeLa cells for transcripts corresponding to each of the MARCH-proteins (FIG. 7C, and data not shown), HeLa cells were transfected with expression plasmids for MARCH-I, II, III, IV, V and VIII. Surface expression of selected glycoproteins was monitored upon transfection. […] Surface expression of the respective markers was analyzed by flow cytometry. […]

[4] = system: HLA-A2.1; assay: Surface expression of co-transfected HLA-A2.1 constructs on HeLa cells, flow cytometry; format: cell-based, human
Procedure: as §1, §2
The most likely targets for ubiquitination on transmembrane glycoproteins are lysines in the cytoplasmic tail. To examine the role of lysines for MHC I and CD4 downregulation by MARCH-IV, a panel of constructs derived from the human MHC I molecule HLA-A2.1 and a lysine-deleted version of CD4 (Mansouri et al., 2003, supra) were used. In addition to MARCH-IV, MARCH-VIII was included in this analysis since it reduced HLA-A2.1 surface expression (FIG. 10A). […] To rule out the possibility that these mutations changed the target molecules in such a way that they are no longer recognized by MARCH-IV or VIII, a lysine residue into a HA-tag at the carboxyterminal end of HLA-A2.1 was introduced.

[5] = system: Fas (CD95), MHC I, HLA-A2.1, CD4, transferrin receptor, B7.1; assay: Surface glycoprotein panel on transfected HeLa cells, flow cytometry; format: cell-based, human; details: HeLa cells transfected with MARCH plasmid
Procedure: as §1
The ability to downregulate MHC I is common to KSHV-K3, KSHV-K5, MHV68-K3 and MV-M153R (Coscoy and Ganem, 2000, supra; Guerin et al., 2002, supra; Ishido et al., 2000b supra; Stevenson et al., 2000, supra). Additional substrates are ICAM-1 and B7.2 (but not B7.1) for KSHV-K5, as well as CD95 and CD4 for M153R (Coscoy and Ganem, 2001, supra; Guerin et al., 2002, supra; Ishido et al., 2000a, supra; Mansouri et al., 2003, supra). Since only low copy numbers were detected in HeLa cells for transcripts corresponding to each of the MARCH-proteins (FIG. 7C, and data not shown), HeLa cells were transfected with expression plasmids for MARCH-I, II, III, IV, V and VIII. Surface expression of selected glycoproteins was monitored upon transfection. […] Surface expression of the respective markers was analyzed by flow cytometry. […]

| Molecule | ubiquitin ligase activity with UbCH5a [1] | ubiquitin ligase activity with MmUbc6 [1] | surface expression of MHC I [2] | surface expression of transferrin receptor (TfR) [3] | further results |
| --- | --- | --- | --- | --- | --- |
| MARCH-I: human membrane-associated RING-CH transmembrane ubiquitin ligase, SEQ ID NOS:39 and 54; expressed by transfection or as GST-RING-CH domain (protein, listed as Homo sapiens) MTSSHVCCNFLNMWKKSKISTMYYLNQDAKLSNLFLQASSPTTGTAPRSQSRLSVCPSTQDICRICHCEGDEESPLITPCRCTGTLRFVHQSCLHQWIKSSDTRCCELCKYDFIMETKLKPLRKWEKLQMTTSERRKIFCSVTFHVIAITCVVWSLYVLIDRTAEEIKQGNDNGVLEWPFWTKLVVVAIGFTGGLVFMYVQCKVYVQLWRRLKAYNRVIFVQNCPDTAKKLEKNFSCNVNTDIKDAVVVPVPQTGANSLPSAEGGPPEVVSV | more active | only active with MmUbc6 | no effect | reduced the surface levels of transferring receptor; also recorded: Some reduction; also recorded: strong downregulation | formation of high molecular weight ubiquitinated complexes with the E2 enzymes tested ([1]; GST-RING-CH fusion, E2 panel overall): less active with most E2 enzymes tested; surface expression of MHC I ([2]; listed as MARCH I): No significant MHC I downregulation |
| MARCH-VIII: human membrane-associated RING-CH ubiquitin ligase, SEQ ID NOS:53 and 61 (protein, listed as Homo sapiens) MSMPLHQISAIPSQDAISARVYRSKTKEKEREEQNEKTLGHFMSHSSNISKAGSPPSASAPAPVSSFSRTSITPSSQDICRICHCEGDDESPLITPCHCTGSLHFVHQACLQQWIKSSDTRCCELCKYEFIMETKLKPLRKWEKLQMTSSERRKIMCSVTFHVIAITCVVWSLYVLIDRTAEEIKQGQATGILEWPFWTKLVVVAIGFTGGLLFMYVQCKVYVQLWKRLKAYNRVIYVQNCPETSKKNIFEKSPLTEPNFENKHGHGICHSDTNSSCCTEPEDTGAEIIHV | – | – | reduced the surface expression of MHC I; also recorded: down regulated | almost complete elimination; also recorded: down regulated | downregulation of HLA-A2.1 with a lysine re-introduced into the C-terminal HA-tag ([4]; HeLa cells): restored downregulation; surface expression of transfected HLA-A2.1 ([4]; HeLa cells co-transfected with HLA-A2.1 and MARCH plasmid): reduced; downregulation of HLA-A2.1 with lysines removed from the tail ([4]; HeLa cells, lysine-less HLA-A2.1 construct): resistant |
| ICPO: purified RING domain (amino acids 1-241) of herpes simplex ICP0 as GST fusion, positive control (protein, left off: a dimerising Fc or GST, purified RING domain (amino acids 1-241) of herpes simplex ICP0 as GST fusion, positive control) MEPRPGASTRRPEGRPQREPAPDVWVFPCDRDLPDSSDSEAETEVGGRGDADHHDDDSASEADSTDTELFETGLLGPQGVDGGAVSGGSPPREEDPGSCGGAPPREDGGSDEGDVCAVCTDEIAPHLRCDTFPCMHRFCIPCMKTWMQLRNTCPLCNAKLVYLIVGVTPSGSFSTIPIVNDPQTRMEAEEAVRAGTAVDFIWTGNQRFAPRYLTLGGHTVRALSPTHPEPTTDEDDDDLDD | promoted the formation of high-molecular weight complexes | some activity | – | – | – |
| MARCH-III: human membrane-associated RING-CH ubiquitin ligase, SEQ ID NOS:43 and 56 (protein, listed as Homo sapiens) MTTSRCSHLPEVLPDCTSSAAPVVKTVEDCGSLVNGQPQYVMQVSAKDGQLLSTVVRTLATQSPFNDRPMCRICHEGSSQEDLLSPCECTGTLGTIHRSCLEHWLSSSNTSYCELCHFRFAVERKPRPLVEWLRNPGPQHEKRTLFGDMVCFLFITPLATISGWLCLRGAVDHLHFSSRLEAVGLIALTVALFTIYLFWTLVSFRYHCRLYNEWRRTNQRVILLIPKSVNVPSNQPSLLGLHSVKRNSKETVV | – | – | – | – | reduction in surface levels of any of the glycoproteins of the panel [5]: No reduction in surface levels |
| full-length MARCH-IV: MARCH-IV full length, which contains an N-terminal extension of 63 amino acids (protein) WYCYGLCAPAPQMLRHQGLLKCRCRMLFNDLKVFLLRRPPQAPLPMHGDPQPPGLAANNTLPALGAGGWAGWRGPREVVGREPPPVPPPPPLPPSSVEDDWGGPATEPPASLLSSASSDDFCKEKTEDRYSLGSSLDSGMRTPLCRICFQGPEQGELLSPCRCDGSVKCTHQPCLIKWISERGCWSCELCYYKYHVIAISTKNPLQWQAISLTVIEKVQVAAAILGSLFLIASISWLIWSTFSPSARWQRQDLLFQICYGMYGFMDVVCIGLIIHEGPSVYRIFKRWQAVNQQWKVLNYDKTKDLEDQKAGGRTNPRTSSSTQANIPSSEEETAGTPAPEQGPAQAAGHPSGPLSHHHCAYTILHILSHLRPHEQRSPPGSSRELVMRVTTV | – | – | downregulates MHC I | – | – |
